Laboratory results: patent publication US20230139053A1

Tests used:
[1] = molecular target: anti-A2M antibody (MAB) labeled with a donor fluorophore; assay: competitive TR-FRET, competitor acceptor-labeled isolated A2M; unlabeled A2M 0 ug/mL, mean of 4 replicates (FIG. 2G)
[2] = molecular target: anti-A2M antibody (MAB) labeled with a donor fluorophore; assay: competitive TR-FRET, competitor acceptor-labeled isolated A2M; unlabeled A2M 200 ug/mL, mean of 4 replicates (FIG. 2G)
[3] = molecular target: anti-A2M antibody (MAB) labeled with a donor fluorophore; assay: competitive TR-FRET, competitor acceptor-labeled isolated A2M; unlabeled A2M 500 ug/mL, mean of 4 replicates (FIG. 2G)
[4] = molecular target: anti-A2M antibody (MAB) labeled with a donor fluorophore; assay: competitive TR-FRET, competitor acceptor-labeled isolated A2M; unlabeled A2M 1000 ug/mL, mean of 4 replicates (FIG. 2G)
[5] = molecular target: anti-A2M antibody (MAB) labeled with a donor fluorophore; assay: competitive TR-FRET, competitor acceptor-labeled isolated A2M; unlabeled A2M 2000 ug/mL, mean of 4 replicates (FIG. 2G)
[6] = molecular target: anti-A2M antibody (MAB) labeled with a donor fluorophore; assay: competitive TR-FRET, competitor acceptor-labeled isolated A2M; unlabeled A2M 4000 ug/mL, mean of 4 replicates (FIG. 2G)
[7] = molecular target: anti-A2M antibody (MAB) labeled with a donor fluorophore; assay: competitive TR-FRET, competitor acceptor-labeled isolated A2M, whole blood; A2M 0 ug/mL, multiplex cals, 5 min (FIG. 2I)
[8] = molecular target: anti-A2M antibody (MAB) labeled with a donor fluorophore; assay: competitive TR-FRET, competitor acceptor-labeled isolated A2M, whole blood; A2M 0 ug/mL, multiplex cals, 30 min (FIG. 2I)
[9] = molecular target: anti-A2M antibody (MAB) labeled with a donor fluorophore; assay: competitive TR-FRET, competitor acceptor-labeled isolated A2M, whole blood; A2M 0 ug/mL, singleplex cals, 5 min (FIG. 2I)
[10] = molecular target: anti-A2M antibody (MAB) labeled with a donor fluorophore; assay: competitive TR-FRET, competitor acceptor-labeled isolated A2M, whole blood; A2M 0 ug/mL, singleplex cals, 30 min (FIG. 2I)
[11] = molecular target: anti-A2M antibody (MAB) labeled with a donor fluorophore; assay: competitive TR-FRET, competitor acceptor-labeled isolated A2M, whole blood; A2M 200 ug/mL, multiplex cals, 5 min (FIG. 2I)
[12] = molecular target: anti-A2M antibody (MAB) labeled with a donor fluorophore; assay: competitive TR-FRET, competitor acceptor-labeled isolated A2M, whole blood; A2M 500 ug/mL, multiplex cals, 5 min (FIG. 2I)
[13] = molecular target: anti-A2M antibody (MAB) labeled with a donor fluorophore; assay: competitive TR-FRET, competitor acceptor-labeled isolated A2M, whole blood; A2M 1000 ug/mL, multiplex cals, 5 min (FIG. 2I)
[14] = molecular target: anti-A2M antibody (MAB) labeled with a donor fluorophore; assay: competitive TR-FRET, competitor acceptor-labeled isolated A2M, whole blood; A2M 200 ug/mL, multiplex cals, 30 min (FIG. 2I)
[15] = molecular target: anti-A2M antibody (MAB) labeled with a donor fluorophore; assay: competitive TR-FRET, competitor acceptor-labeled isolated A2M, whole blood; A2M 200 ug/mL, singleplex cals, 5 min (FIG. 2I)
[16] = molecular target: anti-A2M antibody (MAB) labeled with a donor fluorophore; assay: competitive TR-FRET, competitor acceptor-labeled isolated A2M, whole blood; A2M 2000 ug/mL, multiplex cals, 5 min (FIG. 2I)
[17] = molecular target: anti-A2M antibody (MAB) labeled with a donor fluorophore; assay: competitive TR-FRET, competitor acceptor-labeled isolated A2M, whole blood; A2M 4000 ug/mL, multiplex cals, 5 min (FIG. 2I)
[18] = molecular target: anti-A2M antibody (MAB) labeled with a donor fluorophore; assay: competitive TR-FRET, competitor acceptor-labeled isolated A2M, whole blood; A2M 500 ug/mL, multiplex cals, 30 min (FIG. 2I)
[19] = molecular target: anti-A2M antibody (MAB) labeled with a donor fluorophore; assay: competitive TR-FRET, competitor acceptor-labeled isolated A2M, whole blood; A2M 500 ug/mL, singleplex cals, 5 min (FIG. 2I)
[20] = molecular target: anti-A2M antibody (MAB) labeled with a donor fluorophore; assay: competitive TR-FRET, competitor acceptor-labeled isolated A2M, whole blood; A2M 1000 ug/mL, multiplex cals, 30 min (FIG. 2I)
[21] = molecular target: anti-A2M antibody (MAB) labeled with a donor fluorophore; assay: competitive TR-FRET, competitor acceptor-labeled isolated A2M, whole blood; A2M 1000 ug/mL, singleplex cals, 5 min (FIG. 2I)
[22] = molecular target: anti-A2M antibody (MAB) labeled with a donor fluorophore; assay: competitive TR-FRET, competitor acceptor-labeled isolated A2M, whole blood; A2M 200 ug/mL, singleplex cals, 30 min (FIG. 2I)
[23] = molecular target: anti-A2M antibody (MAB) labeled with a donor fluorophore; assay: competitive TR-FRET, competitor acceptor-labeled isolated A2M, whole blood; A2M 2000 ug/mL, multiplex cals, 30 min (FIG. 2I)
[24] = molecular target: anti-A2M antibody (MAB) labeled with a donor fluorophore; assay: competitive TR-FRET, competitor acceptor-labeled isolated A2M, whole blood; A2M 2000 ug/mL, singleplex cals, 5 min (FIG. 2I)
[25] = molecular target: anti-A2M antibody (MAB) labeled with a donor fluorophore; assay: competitive TR-FRET, competitor acceptor-labeled isolated A2M, whole blood; A2M 4000 ug/mL, multiplex cals, 30 min (FIG. 2I)
[26] = molecular target: anti-A2M antibody (MAB) labeled with a donor fluorophore; assay: competitive TR-FRET, competitor acceptor-labeled isolated A2M, whole blood; A2M 4000 ug/mL, singleplex cals, 5 min (FIG. 2I)
[27] = molecular target: anti-A2M antibody (MAB) labeled with a donor fluorophore; assay: competitive TR-FRET, competitor acceptor-labeled isolated A2M, whole blood; A2M 500 ug/mL, singleplex cals, 30 min (FIG. 2I)
[28] = molecular target: anti-A2M antibody (MAB) labeled with a donor fluorophore; assay: competitive TR-FRET, competitor acceptor-labeled isolated A2M, whole blood; A2M 1000 ug/mL, singleplex cals, 30 min (FIG. 2I)
[29] = molecular target: anti-A2M antibody (MAB) labeled with a donor fluorophore; assay: competitive TR-FRET, competitor acceptor-labeled isolated A2M, whole blood; A2M 2000 ug/mL, singleplex cals, 30 min (FIG. 2I)
[30] = molecular target: anti-A2M antibody (MAB) labeled with a donor fluorophore; assay: competitive TR-FRET, competitor acceptor-labeled isolated A2M, whole blood; A2M 4000 ug/mL, singleplex cals, 30 min (FIG. 2I)

- F/B Mean [1]: 1
- F/B Mean [2]: 0.905
- F/B Mean [3]: 0.795
- F/B Mean [4]: 0.666
- F/B Mean [5]: 0.532
- F/B Mean [6]: 0.393
- F/B [7]: 1
- F/B [8]: 1
- F/B [9]: 1
- F/B [10]: 1
- F/B [11]: 0.83
- F/B [12]: 0.71
- F/B [13]: 0.58
- F/B [14]: 0.87
- F/B [15]: 0.88
- F/B [16]: 0.45
- F/B [17]: 0.34
- F/B [18]: 0.74
- F/B [19]: 0.72
- F/B [20]: 0.56
- F/B [21]: 0.58
- F/B [22]: 0.88
- F/B [23]: 0.45
- F/B [24]: 0.43
- F/B [25]: 0.33
- F/B [26]: 0.33
- F/B [27]: 0.71
- F/B [28]: 0.59
- F/B [29]: 0.43
- F/B [30]: 0.33
B1: A2M (alpha-2-macroglobulin), unlabeled calibrator / analyte (protein)
chain: SVSGKPQYMVLVPSLLHTETTEKGCVLLSYLNETVTVSASLESVRGNRSLFTDLEAENDVLHCVAFAVPKSSSNEEVMFLTVQVKGPTQEFKKRTTVMVKNEDSLVFVQTDKSIYKPGQTVKFRVVSMDENFHPLNELIPLVYIQDPKGNRIAQWQSFQLEGGLKQFSFPLSSEPFQGSYKVVVQKKSGGRTEHPFTVEEFVLPKFEVQVTVPKIITILEEEMNVSVCGLYTYGKPVPGHVTVSICRKYSDASDCHGEDSQAFCEKFSGQLNSHGCFYQQVKTKVFQLKRKEYEMKLHTEAQIQEEGTVVELTGRQSSEITRTITKLSFVKVDSHFRQGIPFFGQVRLVDGKGVPIPNKVIFIRGNEANYYSNATTDEHGLVQFSINTTNVMGTSLTVRVNYKDRSPCYGYQWVSEEHEEAHHTAYLVFSPSKSFVHLEPMSHELPCGHTQTVQAHYILNGGTLLGLKKLSFYYLIMAKGGIVRTGTHGLLVKQEDMKGHFSISIPVKSDIAPVARLLIYAVLPTGDVIGDSAKYDVENCLANKVDLSFSPSQSLPASHAHLRVTAAPQSVCALRAVDQSVLLMKPDAELSASSVYNLLPEKDLTGFPGPLNDQDNEDCINRHNVYINGITYTPVSSTNEKDMYSFLEDMGLKAFTNSKIRKPKMCPQLQQYEMHGPEGLRVGFYESDVMGRGHARLVHVEEPHTETVRKYFPETWIWDLVVVNSAGVAEVGVTVPDTITEWKAGAFCLSEDAGLGISSTASLRAFQPFFVELTMPYSVIRGEAFTLKATVLNYLPKCIRVSVQLEASPAFLAVPVEKEQAPHCICANGRQTVSWAVTPKSLGNVNFTVSAEALESQELCGTEVPSVPEHGRKDTVIKPLLVEPEGLEKETTFNSLLCPSGGEVSEELSLKLPPNVVEESARASVSVLGDILGSAMQNTQNLLQMPYGCGEQNMVLFAPNIYVLDYLNETQQLTPEIKSKAIGYLNTGYQRQLNYKHYDGSYSTFGERYGRNQGNTWLTAFVLKTFAQARAYIFIDEAHITQALIWLSQRQKDNGCFRSSGSLLNNAIKGGVEDEVTLSAYITIALLEIPLTVTHPVVRNALFCLESAWKTAQEGDHGSHVYTKALLAYAFALAGNQDKRKEVLKSLNEEAVKKDNSVHWERPQKPKAPVGHFYEPQAPSAEVEMTSYVLLAYLTAQPAPTSEDLTSATNIVKWITKQQNAQGGFSSTQDTVVALHALSKYGAATFTRTGKAAQVTIQSSGTFSSKFQVDNNNRLLLQQVSLPELPGEYSMKVTGEGCVYLQTSLKYNILPEKEEFPFALGVQTLPQTCDEPKAHTSFQISLSVSYTGSRSASNMAIVDVKMVSGFIPLKPTVKMLERSNHVSRTEVSSNHVLIYLDKVSNQTLSLFFTVLQDVPVRDLKPAIVKVYDYYETDEFAIAEYNAPCSKDLGNA
